According to paper PMC6910952 (Nature Communications, 2019):
“And” between values parts separate entries of the source, which are not always exact repeats. Equal values may be shown once.

Legend:
Details in all cases: both partners purified
[1] = biological target: T1, M1-Ub4 (UniProt P0CG48 1-76; P0CG48 1-76; P0CG48 1-76; P0CG48 1-76); assay: SPR; Biacore T200, 25 °C; wild-type or mutant His6-yNpl4^113–580, yUfd1–His6-yNpl4^113–580 or His6-hNpl4 immobilized on a CM5 chip by amine coupling; Ub2 or Ub4 in two-fold dilution series injected 60 s at 10 μL per min in 10 mM HEPES-NaOH pH 7.5, 150 mM NaCl, 0.05% Tween-20, 0.5 g/L BSA; equilibrium Kd
T1 construct: ubiquitin (Ub), first unit; ubiquitin (Ub), second unit; ubiquitin (Ub), third unit; ubiquitin (Ub), fourth unit

[2] = biological target: T2, M1-Ub2 (UniProt P0CG48 1-76; P0CG48 1-76); assay: as above
T2 construct: ubiquitin (Ub), first unit; ubiquitin (Ub), second unit

[3] = biological target: T3, yNpl4^113–580 (E123A K124A E125A) (Saccharomyces cerevisiae, UniProt P33755 113-580, E123A | K124A | E125A); assay: crystal structure; yNpl4^113–580 (E123A K124A E125A)–yUfd1^288–305 complex; sitting drop, 20 °C, 90 mM Bis-Tris-HCl pH 7.5, 19% PEG3350, 10 mM ATP
T3 construct: not shown: GST, N-terminal, cleaved
T3 sequence (looked up): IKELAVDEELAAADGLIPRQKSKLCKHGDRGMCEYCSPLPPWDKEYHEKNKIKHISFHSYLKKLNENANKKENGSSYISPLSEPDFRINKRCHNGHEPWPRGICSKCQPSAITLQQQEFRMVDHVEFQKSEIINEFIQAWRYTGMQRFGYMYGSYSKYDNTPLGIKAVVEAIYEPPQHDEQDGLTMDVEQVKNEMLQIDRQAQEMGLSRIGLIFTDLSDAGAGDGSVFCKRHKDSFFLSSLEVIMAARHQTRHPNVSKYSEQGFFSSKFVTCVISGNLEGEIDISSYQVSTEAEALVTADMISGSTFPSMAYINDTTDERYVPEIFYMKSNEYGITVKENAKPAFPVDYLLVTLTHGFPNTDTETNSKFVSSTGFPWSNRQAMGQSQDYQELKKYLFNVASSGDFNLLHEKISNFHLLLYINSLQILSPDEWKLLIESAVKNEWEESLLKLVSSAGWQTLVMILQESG

[4] = biological target: T4, Cdc48 (recombinant, hexameric) (Saccharomyces cerevisiae, UniProt P25694 1-835); assay: pull-down; GST-yUfd1 (0.5 μM) on Glutathione Sepharose 4B beads with His6-tagged Npl4 (wild type or mutant), Cdc48 and K48 chains; same binding buffer (Supplementary Fig. 3b)
T4 construct: Cdc48 AAA-family ATPase of Saccharomyces cerevisiae; source: E. coli Rosetta (DE3) (pET21a), purified (TALON resin, Superose 6)
T4 sequence (P25694 whole entry): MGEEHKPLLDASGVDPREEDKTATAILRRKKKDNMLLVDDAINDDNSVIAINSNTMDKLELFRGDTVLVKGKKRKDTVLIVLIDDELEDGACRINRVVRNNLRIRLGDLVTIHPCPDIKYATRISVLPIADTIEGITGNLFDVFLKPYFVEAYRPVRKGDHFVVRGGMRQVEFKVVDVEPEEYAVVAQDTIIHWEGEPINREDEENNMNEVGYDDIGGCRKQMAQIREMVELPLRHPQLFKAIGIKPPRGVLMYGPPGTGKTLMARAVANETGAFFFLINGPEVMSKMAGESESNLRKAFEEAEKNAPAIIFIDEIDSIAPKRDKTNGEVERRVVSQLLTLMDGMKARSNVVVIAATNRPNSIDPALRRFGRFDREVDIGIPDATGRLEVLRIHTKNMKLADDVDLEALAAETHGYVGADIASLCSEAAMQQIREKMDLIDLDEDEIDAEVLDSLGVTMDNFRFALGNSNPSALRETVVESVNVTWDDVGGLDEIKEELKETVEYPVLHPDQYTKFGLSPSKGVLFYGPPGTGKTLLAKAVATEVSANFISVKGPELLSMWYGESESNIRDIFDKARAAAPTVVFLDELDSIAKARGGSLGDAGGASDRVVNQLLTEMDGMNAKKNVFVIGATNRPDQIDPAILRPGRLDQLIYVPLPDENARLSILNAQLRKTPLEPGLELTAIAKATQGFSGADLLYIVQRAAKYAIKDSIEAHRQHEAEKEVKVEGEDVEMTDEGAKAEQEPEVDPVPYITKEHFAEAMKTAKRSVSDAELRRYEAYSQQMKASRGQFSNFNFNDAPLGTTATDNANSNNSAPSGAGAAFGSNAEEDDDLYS

B1: His6-yNpl4^113–580 (domain or fragment, Saccharomyces cerevisiae, UniProt P33755 113-580, looked up)
chain: IKELAVDEELEKEDGLIPRQKSKLCKHGDRGMCEYCSPLPPWDKEYHEKNKIKHISFHSYLKKLNENANKKENGSSYISPLSEPDFRINKRCHNGHEPWPRGICSKCQPSAITLQQQEFRMVDHVEFQKSEIINEFIQAWRYTGMQRFGYMYGSYSKYDNTPLGIKAVVEAIYEPPQHDEQDGLTMDVEQVKNEMLQIDRQAQEMGLSRIGLIFTDLSDAGAGDGSVFCKRHKDSFFLSSLEVIMAARHQTRHPNVSKYSEQGFFSSKFVTCVISGNLEGEIDISSYQVSTEAEALVTADMISGSTFPSMAYINDTTDERYVPEIFYMKSNEYGITVKENAKPAFPVDYLLVTLTHGFPNTDTETNSKFVSSTGFPWSNRQAMGQSQDYQELKKYLFNVASSGDFNLLHEKISNFHLLLYINSLQILSPDEWKLLIESAVKNEWEESLLKLVSSAGWQTLVMILQESG
notes: codon-optimized synthetic cDNA; also called WT; WT #1; source: E. coli Rosetta (DE3), purified (Ni-NTA, Resource Q); also in lysate, mixed with cells expressing GST-yUfd1 for co-purification; not shown: His6, N-terminal, kept
- Kd [1]: 139 µM and 103 µM
- Kd [2]: 333 µM and 420 µM

B2: yUfd1^288–305 (peptide, UniProt P53044 288-305, looked up)
chain: EPAKLDLPEGQLFFGFPM
notes: also called yUfd1 NBM; not shown: GST, N-terminal, cleaved
- binding result [3]: binds

B3: GST-yUfd1 (full length) (natural protein, Saccharomyces cerevisiae, UniProt P53044 1-361, looked up)
chain: MFSGFSSFGGGNGFVNMPQTFEEFFRCYPIAMMNDRIRKDDANFGGKIFLPPSALSKLSMLNIRYPMLFKLTANETGRVTHGGVLEFIAEEGRVYLPQWMMETLGIQPGSLLQISSTDVPLGQFVKLEPQSVDFLDISDPKAVLENVLRNFSTLTVDDVIEISYNGKTFKIKILEVKPESSSKSICVIETDLVTDFAPPVGYVEPDYKALKAQQDKEKKNSFGKGQVLDPSVLGQGSMSTRIDYAGIANSSRNKLSKFVGQGQNISGKAPKAEPKQDIKDMKITFDGEPAKLDLPEGQLFFGFPMVLPKEDEESAAGSKSSEQNFQGQGISLRKSNKRKTKSDHDSSKSKAPKSPEVIEID
notes: Ufd1 of Saccharomyces cerevisiae (yUfd1), full length; also called GST-Ufd1; source: E. coli Rosetta (DE3) (pGEX-6P1), purified (Glutathione Sepharose FF, Resource Q); not shown: GST, N-terminal, kept
- binding result [4]: binds
